Laboratory results taken from PMC10842222.

Target: CRM1 (UniProt O14980)
Experiment: co-immunoprecipitation, immunoblot
Conditions: reference: ALKBH5 WT, EGF-treated; sites Y71

ALKBH5 (from UniProt Q6P6C2) ALKBH5 Y71F, EGF-treated
binding against the reference: stronger
